Assay results published in paper PMC5778602 (Nucleic Acids Research, 2017).

T1: WD40 domain of CstF-50 (human, UniProt Q05048 80-431)
T1 sequence: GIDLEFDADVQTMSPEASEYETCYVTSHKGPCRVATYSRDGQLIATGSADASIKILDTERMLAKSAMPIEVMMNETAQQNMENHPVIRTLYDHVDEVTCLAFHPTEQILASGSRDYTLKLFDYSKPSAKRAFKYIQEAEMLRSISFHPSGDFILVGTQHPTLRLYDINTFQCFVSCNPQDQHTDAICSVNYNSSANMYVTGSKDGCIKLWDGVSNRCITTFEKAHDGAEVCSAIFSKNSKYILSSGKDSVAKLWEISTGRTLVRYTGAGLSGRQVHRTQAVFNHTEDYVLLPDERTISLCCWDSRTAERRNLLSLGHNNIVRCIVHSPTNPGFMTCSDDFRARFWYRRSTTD

B1: CstF-77 (residues 241–610) (domain or fragment, human, UniProt Q12996 241-610, looked up)
chain: NTPQEAQQVDMWKKYIQWEKSNPLRTEDQTLITKRVMFAYEQCLLVLGHHPDIWYEAAQYLEQSSKLLAEKGDMNNAKLFSDEAANIYERAISTLLKKNMLLYFAYADYEESRMKYEKVHSIYNRLLAIEDIDPTLVYIQYMKFARRAEGIKSGRMIFKKAREDTRTRHHVYVTAALMEYYCSKDKSVAFKIFELGLKKYGDIPEYVLAYIDYLSHLNEDNNTRVLFERVLTSGSLPPEKSGEIWARFLAFESNIGDLASILKVEKRRFTAFKEEYEGKETALLVDRYKFMDLYPCSASELKALGYKDVSRAKLAAIIPDPVVAPSIVPVLKDEVDRKPEYPKPDTQQMIPFQPRHLAPPGLHPVPGGVF
B2: full length GST-CstF-50 fusion protein (natural protein, human, UniProt Q05048 1-431, looked up)
chain: MYRTKVGLKDRQQLYKLIISQLLYDGYISIANGLINEIKPQSVCAPSEQLLHLIKLGMENDDTAVQYAIGRSDTVAPGTGIDLEFDADVQTMSPEASEYETCYVTSHKGPCRVATYSRDGQLIATGSADASIKILDTERMLAKSAMPIEVMMNETAQQNMENHPVIRTLYDHVDEVTCLAFHPTEQILASGSRDYTLKLFDYSKPSAKRAFKYIQEAEMLRSISFHPSGDFILVGTQHPTLRLYDINTFQCFVSCNPQDQHTDAICSVNYNSSANMYVTGSKDGCIKLWDGVSNRCITTFEKAHDGAEVCSAIFSKNSKYILSSGKDSVAKLWEISTGRTLVRYTGAGLSGRQVHRTQAVFNHTEDYVLLPDERTISLCCWDSRTAERRNLLSLGHNNIVRCIVHSPTNPGFMTCSDDFRARFWYRRSTTD
B3: CstF-50 (full length, affinity tag removed) (natural protein, human, UniProt Q05048 1-431, looked up)
chain: B2 chain
B4: CstF-77ΔN (domain or fragment, human, UniProt Q12996 241-717, looked up)
chain: NTPQEAQQVDMWKKYIQWEKSNPLRTEDQTLITKRVMFAYEQCLLVLGHHPDIWYEAAQYLEQSSKLLAEKGDMNNAKLFSDEAANIYERAISTLLKKNMLLYFAYADYEESRMKYEKVHSIYNRLLAIEDIDPTLVYIQYMKFARRAEGIKSGRMIFKKAREDTRTRHHVYVTAALMEYYCSKDKSVAFKIFELGLKKYGDIPEYVLAYIDYLSHLNEDNNTRVLFERVLTSGSLPPEKSGEIWARFLAFESNIGDLASILKVEKRRFTAFKEEYEGKETALLVDRYKFMDLYPCSASELKALGYKDVSRAKLAAIIPDPVVAPSIVPVLKDEVDRKPEYPKPDTQQMIPFQPRHLAPPGLHPVPGGVFPVPPAAVVLMKLLPPPICFQGPFVQVDELMEIFRRCKIPNTVEEAVRIITGGAPELAVEGNGPVESNAVLTKAVKRPNEDSDEDEEKGAVVPPVHDIYRARQQKRIR
B5: CstF-77 (residues 241–600) (domain or fragment, human, UniProt Q12996 241-600, looked up)
chain: NTPQEAQQVDMWKKYIQWEKSNPLRTEDQTLITKRVMFAYEQCLLVLGHHPDIWYEAAQYLEQSSKLLAEKGDMNNAKLFSDEAANIYERAISTLLKKNMLLYFAYADYEESRMKYEKVHSIYNRLLAIEDIDPTLVYIQYMKFARRAEGIKSGRMIFKKAREDTRTRHHVYVTAALMEYYCSKDKSVAFKIFELGLKKYGDIPEYVLAYIDYLSHLNEDNNTRVLFERVLTSGSLPPEKSGEIWARFLAFESNIGDLASILKVEKRRFTAFKEEYEGKETALLVDRYKFMDLYPCSASELKALGYKDVSRAKLAAIIPDPVVAPSIVPVLKDEVDRKPEYPKPDTQQMIPFQPRHLAPP

Experiments:
[1] = molecular target: B2; experiment: pull-down
CstF-77ΔN [2] = molecular target: B4; experiment: pull-down
CstF-77ΔN [3] = molecular target: B4; experiment: SEC
SEC-MALS = molecular target: the molecule itself; experiment: SEC-MALS
WD40 domain of CstF-50 = molecular target: T1, WD40 domain of CstF-50; experiment: ITC

B1
binding result [1]: binds

B2
binding result (CstF-77ΔN [2]): binds

B3
binding result (CstF-77ΔN [3]): binds

B4
stoichiometry N (SEC-MALS): 2

B5
binding result [1]: binds

YPKPDTQQMIPFQPRHLAPP (peptide, UniProt Q12996 581-600, looked up) [CstF-77 peptide (residues 581–600)]
Kd (WD40 domain of CstF-50): ~200 nM | stoichiometry N (WD40 domain of CstF-50): 1
